Laboratory results from EP4707393A1, “DOUBLE-STRANDED SIRNA, CONJUGATE THEREOF AND USE THEREOF” (CMS Research & Development Pte. Ltd., priority 2023, dated 2024).

Legend:
[1] = tested on: human LPA gene (Genbank number: NM_005577.4); test: Inhibitory activity against LPA mRNA, psiCHECK-2 dual-luciferase reporter vector in Huh7 cells; type: cell-based; conditions: Huh7 cells transfected with LPA_psiCHECK-2 plasmid, RNAiMAX transfection
Experimental: A stock solution was prepared by dissolving in PBS and stored at -20 °C.
The human LPA gene (Genbank number: NM_005577.4) was cloned into the psiCHECK™-2 vector.
Huh7 cells were cultured in DMEM (Gibco-11995-065, 500 mL) medium, supplemented with FBS (ExCellBio-FSP500, 57 mL), Penicillin-Streptomycin solution (Hyclone-SV30010, 5.7 mL), GlutaMAX™ (Gibco-35050-061, 5.7 mL) and Non-Essential Amino Acids Solution (Gibco-11140050, 5.7 mL).
On Day 1, a method for transfection of the LPA_PSICHECK (TM)-2 plasmid is briefly described as follows: Huh7 cells were washed with DPBS, followed by digestion with 0.05% trypsin, gently pipetted into single cells in DMEM containing 10% FBS, and counted. Plasmid DNA was transferred into Huh7 cells using Fugene HD. The transfected cells were seeded into 96-well plates at a density of 10,000 cells per well, with 100 µL culture medium per well. The cells were incubated overnight in a 5% CO2 incubator at 37 °C.
On Day 2, the test compounds were diluted serially with PBS to 3 concentrations.
RNAiMAX transfection reagent was prepared by blending homogeneously with Opti-MEM at a ratio of RNAiMAX: Opti-MEM=3:47 in a 15 mL centrifuge tube as needed. The compounds were mixed with the RNAiMAX/Opti-MEM (1:1) and incubated for 15 min. The compound-containing RNAiMAX/Opti-MEM mixture was diluted 10-fold with fresh medium and blended homogeneously.
The medium in each well was aspirated, and then 100 µL of the fresh compound-containing medium was added, and then incubated in a 5% CO2, 37 °C incubator.
Experimental procedures refer to DUAL-GLO® Dual Luciferase Assay System instructions, briefly described as follows: Taking out the cells from the incubator, aspirating and discarding the supernatant, adding 75µL fresh culture medium and 75µL detection reagent, shaking for 10 minutes in the dark, and after the cells had been fully lysed, transfering100µL sample to an opaque whiteboard for detecting the Firefly luminescence signal; adding 50 µL Dual-Glo®Stop & Glo® test reagent to each well and detecting the Renilla luciferase signal after shaking for 10 minutes in the dark. The ratio of the reporter signal to the internal control reporter signal was calculated for each well.
[formula] % Inhibition = (1-Sampleratio/RNAiMAXcontrolratio) × 100% [formula]

[2] = tested on: hPBMCs; test: Immunogenicity test in hPBMCs (IL-6 and TNF-α ELISA of supernatant); type: cell-based, human; conditions: donor 1 hPBMCs, 18-20 h
Experimental: 1 Experimental material • 1.1 Double-stranded siRNA conjugates • 1.2 hPBMCs, purchased from Shanghai Sailybio Medical Co., LTD. • 1.3 Main reagents: Penicillin-Streptomycin (Cat. No.: 15140122), RNase-free water (Cat. No.: AM9938), IL-6 ELISA kit (Cat. No.: 555220), TNF-α ELISA kit (Cat. No.: 555212), LPS (Cat. No.: L2630), etc. 2 Experimental method • 2.1 Compound Preparation: Compounds were prepared as stock solutions with enzyme-free water. Compound weight = powder weight * purity. The concentration of prepared solutions was 900 µg/mL, followed by three-fold serial dilution with enzyme-free water. Each concentration was diluted 10-fold with 1640 medium, resulting in a final enzyme-free water content of 5.0%. • 2.2 Experimental procedure: • 2.2.1 PBMC cells were resuscitated one day in advance and incubated overnight in 1640 complete medium. • 2.2.2 On the day of the experiment, PBMC cells were centrifuged at 300 × g for 8 minutes, and the cell density was adjusted to 1.6 × 10^6 mL with 1640 complete medium. The cells were then added to a 96-well plate, 125 µL per well, and incubated in a 37 °C, 5% CO2 incubator for 15 minutes. • 2.2.3 The diluted test compounds were added to the 96-well plate according to the plate map, all in duplicate, 125 µL for each well; the positive control group and the blank group were added with an equal volume of 1640 complete culture medium containing the same amount of enzyme-free water. • 2.2.4 After gently shaking, the well plates were incubated in an incubator at 37 °C for 18-20 h. The supernatant was collected by centrifugation, and secretions of TNF-α and IL-6 were detected by ELISA. • 2.2.5 Data were analyzed using GraphPad Prism 8 software. 3 Experimental results Table 10. IL-6 and TNF-α levels in the cell supernatant of donor 1 hPBMCs treated with different doses of test compounds

Substance | EC50 [1] | IL-6 ([2]; 5 µg/mL) | TNF alpha ([2]; 5 µg/mL) | IL-6 ([2]; 15 µg/mL) | TNF alpha ([2]; 15 µg/mL) | IL-6 ([2]; 45 µg/mL) | TNF alpha ([2]; 45 µg/mL)
Z1: siRNA conjugate: sense SEQ ID NO:27, ligand D08 at 3' end of sense strand, antisense SEQ ID NO:56 (sense CCCTTATTGTTATACG; antisense ATCCCTCGTANAACAATAAGGGGCTGTT; 2'-OMe/2'-F modified, ligand at sense 3' end, full pattern not given here) | 0.12 nM | – | – | – | – | – | –
Z2: siRNA conjugate: sense SEQ ID NO:28, ligand D08 at 3' end of sense strand, antisense SEQ ID NO:56 (sense CCCCTTATTGTTATAC; antisense ATCCCTCGTANAACAATAAGGGGCTGTT; 2'-OMe/2'-F modified, ligand at sense 3' end, full pattern not given here) | 0.48 nM | – | – | – | – | – | –
Z6: siRNA conjugate: sense SEQ ID NO:27, ligand D08 at 3' end of sense strand, antisense SEQ ID NO:57 (sense CCCTTATTGTTATACG; antisense TCGTANAACAATAAGGGGCTGTT; ligand D08 at sense 3' end; listed as RNA; modified_base 1..2: mod_base = OTHER; note = 2'-O-methylcytidine; modified_base 3: mod_base = OTHER; modified_base 4: mod_base = OTHER; note = 2'-O-methyluridine; modified_base 5: mod_base = OTHER; note = 2'-fluorou; modified_base 1: mod_base = OTHER; note = E-type vinylphosphonate-modified 2'-O-methyluridine; modified_base 2: mod_base = OTHER; note = 2'-fluorocytidine; note = 2'-O-methylguanosine; modified_base 4: mo) | 0.42 nM | – | – | – | – | – | –
Z7: siRNA conjugate: sense SEQ ID NO:27, ligand D08 at 3' end of sense strand, antisense SEQ ID NO:58 (sense CCCTTATTGTTATACG; antisense TCGTANAACAATAAGGGGCTGTT; ligand D08 at sense 3' end; listed as RNA; modified_base 1..2: mod_base = OTHER; note = 2'-O-methylcytidine; modified_base 3: mod_base = OTHER; modified_base 4: mod_base = OTHER; note = 2'-O-methyluridine; modified_base 5: mod_base = OTHER; note = 2'-fluorou; modified_base 1: mod_base = OTHER; modified_base 2: mod_base = OTHER; note = 2'-fluorocytidine; note = 2'-O-methylguanosine) | 2.41 nM | – | – | – | – | – | –
Z38: siRNA conjugate: sense SEQ ID NO:49, ligand D01 at 3' end of sense strand, antisense SEQ ID NO:77 (sense CAGCCCCTTATTGTTATACGA; antisense NCGTATNACAATAAGGGGCNGTT; ligand D01 at sense 3' end; listed as RNA; modified_base 1: mod_base = OTHER; note = 2'-O-methylcytidine; modified_base 2: mod_base = OTHER; note = 2'-O-methyladenosine; modified_base 3: mod_base = OTHER; note = 2'-O-methylguanosine; modified_base 4..7: mod_base = OTHER; note = 2'-O-me; note = n is mDVPU; note = 2'-deoxycytidine; modified_base 4: mod_base = OTHER; note = 2'-O-methyluridine;) | – | 1281.4 pg/mL | 33.5 pg/mL | 1257.1 pg/mL | 34.8 pg/mL | 1268.3 pg/mL | 34.4 pg/mL
Z39: siRNA conjugate: sense SEQ ID NO:49, ligand D21 at 3' end of sense strand, antisense SEQ ID NO:77 (sense CAGCCCCTTATTGTTATACGA; antisense NCGTATNACAATAAGGGGCNGTT; ligand D21 at sense 3' end; listed as RNA; modified_base 1: mod_base = OTHER; note = 2'-O-methylcytidine; modified_base 2: mod_base = OTHER; note = 2'-O-methyladenosine; modified_base 3: mod_base = OTHER; note = 2'-O-methylguanosine; modified_base 4..7: mod_base = OTHER; note = 2'-O-me; note = n is mDVPU; note = 2'-deoxycytidine; modified_base 4: mod_base = OTHER; note = 2'-O-methyluridine;) | – | 1333.6 pg/mL | 31.4 pg/mL | 1304.8 pg/mL | 32.6 pg/mL | 1297.0 pg/mL | 33.3 pg/mL
Z44: siRNA conjugate: sense SEQ ID NO:51, ligand D01 at 3' end of sense strand, antisense SEQ ID NO:82 (sense CCTGCCAAGCTTGGTCATCTA; antisense NAGATGNCCAAGCTTGGCNGGTT; ligand D01 at sense 3' end; listed as RNA; modified_base 1..2: mod_base = OTHER; note = 2'-O-methylcytidine; modified_base 3: mod_base = OTHER; note = 2'-O-methyluridine; modified_base 4: mod_base = OTHER; note = 2'-O-methylguanosine; modified_base 5..6: mod_base = OTHER; note = 2'-O-m; modified_base 1: mod_base = OTHER; note = n is mDVPU; modified_base 2: mod_base = OTHER; note = 2'-deoxyadenosine; note = 2'-O-methyladenosi) | – | 1326.7 pg/mL | 34.6 pg/mL | 1331.0 pg/mL | 35.2 pg/mL | 1354.7 pg/mL | 35.8 pg/mL
Z45: siRNA conjugate: sense SEQ ID NO:50, ligand D01 at 3' end of sense strand, antisense SEQ ID NO:82 (sense CCTGCCAAGCTTGGTCATCTA; antisense NAGATGNCCAAGCTTGGCNGGTT; ligand D01 at sense 3' end; listed as RNA; modified_base 1..2: mod_base = OTHER; note = 2'-O-methylcytidine; modified_base 3: mod_base = OTHER; note = 2'-O-methyluridine; modified_base 4: mod_base = OTHER; note = 2'-O-methylguanosine; modified_base 5..6: mod_base = OTHER; note = 2'-O-m; modified_base 1: mod_base = OTHER; note = n is mDVPU; modified_base 2: mod_base = OTHER; note = 2'-deoxyadenosine; note = 2'-O-methyladenosi) | – | 1327.5 pg/mL | 35.3 pg/mL | 1321.5 pg/mL | 35.1 pg/mL | 1321.4 pg/mL | 34.9 pg/mL
